The experiment addresses T1, RAF1 (endogenous, pMECs) (mouse (endogenous in pMECs), UniProt Q99N57 1-648).
T1 construct: RAF1 kinase, endogenous in primary mouse endothelial cells; source: endogenous, pMEC lysate
Kind of experiment: co-IP; RAF1 immunoprecipitates from lysates of F/F and BRAFΔ/Δ pMEC monolayers; Protein G Sepharose with antibody, 4 °C overnight; 25 mM HEPES, 150 mM NaCl, 1 mM EGTA, 0.5% NP-40, 10% glycerol; immunoblot. The following applies: partners not purified.

B1: RHO‐dependent kinase α (enzyme, mouse (endogenous in pMECs), UniProt P70336 1-1388, looked up)
chain: MSRPPPTGKMPGAPEAAPGDGAGAGRQRKLEALIRDPRSPINVESLLDGLNSLVLDLDFPALRKNKNIDNFLNRYEKIVKKIRGLQMKAEDYDVVKVIGRGAFGEVQLVRHKASQKVYAMKLLSKFEMIKRSDSAFFWEERDIMAFANSPWVVQLFCAFQDDRYLYMVMEYMPGGDLVNLMSNYDVPEKWAKFYTAEVVLALDAIHSMGLIHRDVKPDNMLLDKHGHLKLADFGTCMKMDETGMVHCDTAVGTPDYISPEVLKSQGGDGYYGRECDWWSVGVFLFEMLVGDTPFYADSLVGTYSKIMDHKNSLCFPEDTEISKHAKNLICAFLTDREVRLGRNGVEEIKQHPFFKNDQWNWDNIRETAAPVVPELSSDIDSSNFDDIEDDKGDVETFPIPKAFVGNQLPFIGFTYFRENLLLSDSPPCRENDAIQTRKSEESQEIQKKLYALEEHLSSEVQAKEELEQKCKSINTRLEKTAKELEEEITLRKSVESTLRQLEREKALLQHKNAEYQRKADHEADKKRNLENDVNSLKDQLEDLKKRNQSSQISTEKVNQLQKQLDEANALLRTESDTAARLRKTQAESSKQIQQLESNNRDLQDKNCLLETAKLKLEKEFINLQSALESERRDRTHGSEIINDLQGRISGLEEDLKTGKALLAKVELEKRQLQEKLTDLEKEKSNMEIDMTYQLKVIQQSLEQEEAEHKTTKARLADKNKIYESIEEAKSEAMKEMEKKLLEERSLKQKVENLLLEAEKRCSILDCDLKQSQQKLNELLKQKDVLNEDVRNLTLKIEQETQKRCLMQNDLKMQTQQVNTLKMSEKQIKQENNHLMEMKMNLEKQNTELRKERQDADGQMKELQDQLEAEQYFSTLYKTQVRELKEENEEKTKLCKELQQKKQDLQDERDSLAAQLEITLTKADSEQLARSIAEEQYSDLEKEKIMKELEIKEMMARHKQELTEKDTTIASLEETNRTLTSDVANLANEKEELNNKLKDSQEQLSKLKDEEMSAAAIKAQFEKQLLNERTLKTQAVNKLAEIMNRKEPVKRGSDTDVRRKEKENRKLHMELKSEREKLTQQMIKYQKELNEMQAQIAEESQIRIELQMTLDSKDSDIEQLRSQLQALHIGMDSSSIGSGPGDAEPDDGFPESRLEGWLSLPVRNNTKKFGWVKKYVIVSSKKILFYDSEQDKEQSNPYMVLDIDKLFHVRPVTQTDVYRADAKEIPRIFQILYANEGESKKEPEFPVEPVGEKSNYICHKGHEFIPTLYHFPTNCEACMKPLWHMFKPPPALECRRCHIKCHKDHMDKKEEIIAPCKVYYDISSAKNLLLLANSTEEQQKWVSRLVKKIPKKPPAPDPFARSSPRTSMKIQQNQSIRRPSRQLAPNKPS
notes: ROKalpha (ROCK2), endogenous in primary mouse endothelial cells; also called ROKα; ROK; source: endogenous, pMEC lysate
For the molecule B1, the “fold increase of the co-precipitate in BRAF-deficient against F/F pMECs” value was 3 fold.

Values taken from publication PMC6617973, “RAF dimers control vascular permeability and cytoskeletal rearrangements at endothelial cell‐cell junctions” (The Febs Journal, 2019).
